The values that follow come from US20100047893.

Data set [1] addresses RBP16.
The target in data set [2] is histone H3, P68432.
Data set [3] concerns the target mixed bovine histones (Sigma).
Data set [4] deals with GST.

B1: GST-TbPRMT7 (protein)
chain: MPPKQHRHQKKDKNDNALQNTIGFVPPGATLASVSGYRPPDAFVNRIDRNIPVPARLRHTPVSLIEAVNDFHYAMMNDEERNNFYYEVLKKHVTPETGVLEIGAGSGLLSLMAAKLGAKWVVAVEGSEELAKLARENIRANNMEHQVKVLHMMSTELKSKHLPEPPDVLLSEIFGTMMLGESALDYVVDVRNRLLKPTTKIIPQFGTQYAVPIECDALHRISSVSGWRDLDLKHMMTLQDTVSIVFAKHYGIRMNSVNFRRLSDPIELFRVDFSSSNRNDIPRRKHFDVVAKESGTAHAMLFYWKVTDDEFVMSTDPEDTVNNFPRDMQWGQALQLLDASNGPLPTPVVFTEGKNYNFECNFSGDRVILHMQLCPESGNGEMTECEGKTT
On to B1, for which the “methylarginine derivatives by cation exchange chromatography after 3H-AdoMet reaction” value in data set [1] and in data set [3] was “only monomethylargnine produced with either histone (B) or RBP16 (C) substrate” in each case. For the same protein, the “protein arginine methyltransferase activity (3H-AdoMet, SDS-PAGE, fluorography)” value in data set [2] was “the recombinant enzyme possesses protein arginine methyltransferase activity and utilizes histone H3 as a substrate”.

B2: TbPRMT7-ProtC (protein)
chain: MPPKQHRHQKKDKNDNALQNTIGFVPPGATLASVSGYRPPDAFVNRIDRNIPVPARLRHTPVSLIEAVNDFHYAMMNDEERNNFYYEVLKKHVTPETGVLEIGAGSGLLSLMAAKLGAKWVVAVEGSEELAKLARENIRANNMEHQVKVLHMMSTELKSKHLPEPPDVLLSEIFGTMMLGESALDYVVDVRNRLLKPTTKIIPQFGTQYAVPIECDALHRISSVSGWRDLDLKHMMTLQDTVSIVFAKHYGIRMNSVNFRRLSDPIELFRVDFSSSNRNDIPRRKHFDVVAKESGTAHAMLFYWKVTDDEFVMSTDPEDTVNNFPRDMQWGQALQLLDASNGPLPTPVVFTEGKNYNFECNFSGDRVILHMQLCPESGNGEMTECEGKTT
For the protein B2, the “in vitro methylation (3H-AdoMet, fluorography)” value in data set [1] was “TbPRMT7-ProtC strongly methylated both histones and RBP16”; in data set [3], “TbPRMT7-ProtC strongly methylated both histones and RBP16”.

B3: recombinant TbPRMT7 (protein)
chain: MPPKQHRHQKKDKNDNALQNTIGFVPPGATLASVSGYRPPDAFVNRIDRNIPVPARLRHTPVSLIEAVNDFHYAMMNDEERNNFYYEVLKKHVTPETGVLEIGAGSGLLSLMAAKLGAKWVVAVEGSEELAKLARENIRANNMEHQVKVLHMMSTELKSKHLPEPPDVLLSEIFGTMMLGESALDYVVDVRNRLLKPTTKIIPQFGTQYAVPIECDALHRISSVSGWRDLDLKHMMTLQDTVSIVFAKHYGIRMNSVNFRRLSDPIELFRVDFSSSNRNDIPRRKHFDVVAKESGTAHAMLFYWKVTDDEFVMSTDPEDTVNNFPRDMQWGQALQLLDASNGPLPTPVVFTEGKNYNFECNFSGDRVILHMQLCPESGNGEMTECEGKTT
B3: in data set [4], the “in vitro methylation (3H-AdoMet, SDS-PAGE, fluorography)” value is “Of the eight substrates tested, only GST was not methylated”. The in vitro methylation result in data set [1] and in data set [3] was “Results indicate methylation occurred” throughout.
